Source: the nanobody polyreactivity screen of Harvey et al. (2022)

Experiment: yeast display, Sf9 membrane polyspecificity reagent, FACS + sequencing; frameworks hold sequencing errors
Summary of the method: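 Galactose induction of a Saccharomyces cerevisiae BJ5465 synthetic nanobody display library ran 36–48 hours. The cells were then stained for 1 hour at 4 °C with 10% biotinylated, detergent-solubilized Sf9 membrane reagent, pulled down on streptavidin microbeads and FACS-sorted into low and high (top ~1%) gates on expression and reagent-binding fluorescence. Labels for polyreactivity follow the gate of origin.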

Sequence | polyreactivity (PSR sort gate)
QVQLVESGGGLVQAGGSLRLSCAASGSIFGYYAMGWYRQAPGKERELVAVITRDASTYYADSVKGRFTISRDNAKNTVDLQMNSLKPEDTAVYYCAADRWWRRSWVKLDYWGHGTQVTVSS | low polyreactivity
QVQLVESGGGLVQAGGSLRLSSAASGSIFGDYVMGWYRPAPGKERELVAAINRGGSTYYADSVKGRFTISRDNAKNTVYLQMNSLKPEDTAVYDCAKDYHNYPSFGVDYCGQGTQVTVSS | low polyreactivity
QVQLVESGGGLVQAGGSLRLSCAASGRIFGRYAMGWYRQAPGKERELVASITRRGGSTYYADSVKGRFTISRDNAKNTVYLQMNSLKPEDTAVYYCAAGGFSWEGDSWGQGTEVTVSS | high polyreactivity
QVQLVESGRGLVQAGGSLRLRCAASGSTFVYNTMGWYRQAPGKEMELVASISSDGNTYYADSVKGRFTISRDNAKNTVYLQMNSLKPEDTAVFYCGARYYYDWRFVGYDYWGQGTQVTVSS | low polyreactivity
QVQLVESGGGLVQAGGSLRLSCAASGSIFAPYDMGWYRQAPGKERELVAAIDWGGDSTYYADSVKGRFTISRDNAKNTVYLQMNSLKPEDTAVYYCAADDLWLSYRTEYDYYYWGQGTQVTVSS | low polyreactivity
QVQLVESGGGLVQAGGSLRLSCAASGSTFLWNAMGWYRQAPGKERELVAAISYSGGSTYYADSVKGRFTISRDNAKNTVYLQMNSLKPEDTAVYYCAKEWFYDPYPPGYDYWGQGTQVTVSS | low polyreactivity
QVQLVESGGGLVQAGGSLRLSCAASGSTFAYYAMGWYRQAPGKERELVAAISSGGSTYYADSVKGRFTISRDNAKNTVYLQMNSLKPEDTAVYYCNKLWVGKFKRYEFGYWGQGTQVTVSS | low polyreactivity
QVQLVESGGGLVQAGGSLRLSCAASGRIFGTYAMGWYRQAPGKERELVAAITQSGGRTYYADSVKGRFTISRDNAKNTVYLQMNSLKPEDTAVYYCNKVTYRGIGLGYDYWGQGTQVTVSS | high polyreactivity
QVQLVESGGGLVQAGGSLRLSCAASGRTFRGYAMGWSRQAHGKEREFVATISSRGGSTYYADSVKGSFTISRDNAKHTVYLQMNSLKPEDTAVYYCAAKRRAKTGYRYDYWGQGTQVTLSS | high polyreactivity
QVQLVESGGGLVQAGGSLRLSCAASGRTFRLYAMGWYRQATGTETELVAAISSRGGSTYYADSVKGRFTISRDNAKNTVYLQMNSLKPEDTAVYYCAKGLGSGQEIYGYDYWGQGTQVTVSS | high polyreactivity
QVQLVESGGGLVQAGGSLRLSCAASGSLFYYYPMGWYRQAPGKERELVATINISDRSTYYADSVKGRFTISRDYAKNTVYLQMNSLKPEDTAVYDCAAYYYFQDYDYWGQGTQVTVSS | low polyreactivity
QVQLVESGGGLVQAGGSLRLSCAASGSTFLRYVMGWYRQAPGKERELVAAIDSGGSTHYADSVKGRFTISRDNAKNTVYLQMNSLKPEDTAVYYCNVDVSSDDWYPSTADFDYWGQGTQVTVSS | high polyreactivity
QVQLVVSGGGLVQAGGSLRLSCAASGSIFRYYAMGWFRQAPGQERELVASITRGGTSTYYADSVKGRFTISRDNAKNTVYLQMNSLKPDDTAVYYCAAKGYLSRYDNWGLGTQVTVSS | high polyreactivity
QGQLEESGGGLVQAGGSLRLTCAASGRNLRTYAMGWYRQATGKERELVAAISRGGSTNYADSVKGRFTISRDNAKNTVYLQMHSLKPEDTAVYYCAAGYVRYYSDYVSYVYWGQGTQVTVSS | low polyreactivity
QDQLVESGGGLVQAGGSLRLSFAASGFTFDHYAMGWSRQAPGKEREYVARITGTGDSTYYADSVKGRFTISRDNAKNTVYLQMNSLKPEDTAVYYCAKDFTGHYPNGFDYWGQGTQVTVSS | low polyreactivity
QVQLVESAGGLVQAGGSLRLSCAASGRNLYQYAMGWYRQAPGKERELVAAITWNGGSTYYADSVKGRFTISRDNAKNTVYLQINSLKPEDTAVYYCAADSVRPWYAYKAHDYWGQGTQVTVSS | low polyreactivity
QVQLVESGGGLVQAGGSLRLSCAASGSIFSSYAMGWYRQAPGKERELVAAISGSGGSTFYADSVKGRFTISRDNAKNTVYLQMNSLKPEDTAVYYCAARYYWYGRAGKKHASYYYWGQGTQVTVSS | high polyreactivity
QVQLVESGGGLVQAGGSLRLSCAASGLTFVANAMGWYRQAPGKERELVAAIDYGGGHTYYADSVKGRFTNSRDNAKNTVYLQMNSLKPEDTAVYYCAVGLPHGGRRLYGSWYRFDYWGQGTQVTVSS | low polyreactivity
QVQLVESGGGLVQAGGSLRLSCAASGLIFYHNAMRWYRQAPGKERELVAAMTASGGSTYYADSVKGRFTISRDNAKNTVYLQMNSLKPEDTAVYYCAADGPLDSDLDYWGQGTQVTVSS | low polyreactivity
QEQLVESGGGLVQAGGSLRLSCAASGFIFAPYAMGWYSQAPGKDRDLVAAISSSGGSTYYADSVKGRFTISRDNAKNTVYLQMNSLKPEDTAVFYCAARGNFGANPGRKHGFDYWGQGTQVTVSS | low polyreactivity
QVQLVESGGGLVQAGGSLRLSCAASGSIFTRYAMGWYRQSPGKERELVAALSYRGGRTYYADSVKGRFTISRDNAKNTVYLQMNSLKPVDTAVYYCAAGYRFSYSPNEFYYWGQGTQVTVSS | high polyreactivity

Sequence | polyreactivity (PSR sort gate)
QVQLVESGGGLDQAGGSLRLSCAASGIIFRSNAMGWYRQAPGKERELVAAITGRGTRTYYADSVKGRFTISRDNAKNTVYLQMNSLKPEDTAVDYCNTGQTRGMGYWGQGTQVTVSS | high polyreactivity
QVQLVESGGGLVQAGGSLRLSCAASGSIFQYNAMGGSRQSPGEDRELVAAISRSGGSTYYADSVKGRFTNSRDNAKNTVYLQMNSLKPEDTAVYYCNAVLGYYSPYDYWVQGTQVTVSS | low polyreactivity
QVQLVESGGGLVQAGGRLRLSCAASGITFTVFAMGWYRQAPGKERELVAAISQSGGSTYYADSVKGRFTISRDNAKNTVYLQMNILNPEDTAVYYCAKTLPSNGHYDYWGQGTQVTVSS | low polyreactivity
QVQLVESGGRLVQERGSLRLSCAASGFIFGRYAMGWYIQAPGKERELVAAITQSGGSTYYADSVKGRFTISRDNAKNTVYVQMNCLNPEDTAVYYCIAPIAYWRVHYKYGYWGQGTQVTVSS | low polyreactivity
QVQLVESGGGLVQAGGSLRLSSAASGRIFYGYAMGWYRQAPGKERELVAAISWSGGSTYYADSVKWRFTISRDNAKNTVYLQMNSLKPEDTAVYYCARRDRGGYKYDYWGQGTQVTVSS | high polyreactivity
QVQLVESGGGLVQARGSLRLICAASGSTFGVHAMGWSRQAPGKERELVAAITWRGGSTYYADSLKGRFTISRDTAKNTVYLQMNSLKPEDTAVYYCAADPRYYSYEYWGEGTQVTVSS | high polyreactivity
QVQLVDSGGGLVQAGGSLRLNFAASGLTFDRYGMGWYRQGPGKERELVAAIDGSGTSTYYADSVKGRFTISRDNAKNTVYLQMNSLKPEDTAVYYCAAGALSWYDYWGQGTQVTVSS | low polyreactivity
QVQLVESGGGLVQAGGSLRLSCAASGSNFFTNAMGGYRQAPGKERELVAVITKRGGSTYYADSVKGRFTISRDNAKNTVYIQMNSLKPEDTAVYYCAADARQWRYYYWGQGSQVTVSS | high polyreactivity
QVQLLESGGGLVQAGGSLRLSCAASGFTFVYYAMGWYRQAPGKERELVAAISSSGGITYYADSVKGRFTISRDNAKNTVYLQMNSMKPEDTAVYYCAARLWYPYYYWGQGTQVTVSS | high polyreactivity
QVQVVESGGGLVQAGGSLRLSCAASGRTSGNYAMGWYRQAPGKERELVAAIRYSGSSTFYADSVKGRFTISRDNAKHTVYLQMNSLKPEDTAVYYCARDIRRKGFRYDYWGQGTQVTVSS | high polyreactivity
QVQLVESGGGLVEAGGSLRLSGAASGRSFGIYAMGWYRQAPGKERELVAAITWSGDSTYYADSVKGRFTISRDNAKKTVYLQMNILKPEDTAVYYCAADDVGVTSVRYDYWGQGTLVTVSS | low polyreactivity
QVQLVESGGGLVQAGGSLRLSCAASGRTFYDYAMGWYRQAPGKESEFVAAITDRDASTSYADSVKGRFTISRDNAKNTVYLQMNSLKPEDTAVYYCAADQYWYKPYVGELYDYDYWGQGTQVTVSS | low polyreactivity
QVQLVESGGGLVQAGGSLRLSCAASGRIFDCYAMGWYIQAPGKERELVAAIRASGGRTYYADSVKGRFTISRDNAKNTVYLQMNSLKPEDTAVYYCAADSVKYGGDYWGQGTQVTVSS | high polyreactivity
QDQLVESGGGLVQAGGSLRLSCAASGSTLAYNAKGWYRPAPGKERELVAGIRGSGGSTYYADSVKGRFTISRDNAKNTVYLLMNSLKPEDTAVYDCAAAGYYYYLYAAYYYWGQGTQVTVSS | low polyreactivity
QVQLVESGGGLVQAGGSLRLSCAASGFTFDPYAMGWYRQAPGKERELVAAISFSGGSTSYADSVKGRFTISRDNAKNTVYLQMNSLKPEDTAVYYCAAYSWLYEGYEYWGLGTQVTVSS | high polyreactivity
QVQLVESGGGLVQAGGSLRISSAASGPTFVPNAMGSYRQAPGKERELVATITSGGNTYYADSVKGRFTISRDNAKNTVYLQMNSLKPEDTAVYYCNRDWIYWGPRRNSGEYWGQGTQVTVSS | low polyreactivity
QVQLVESGGGLVQAGGSLPLSCAASGYTFDANAMGWYRQAPGKERELVASISSISDSTDYADSVKGRFTISRDNAKNTVYLQMNSLKPEDTAVYYCARSDVKPGRQERDYWGQGTQVTVSS | low polyreactivity
QVQLVESGGGLVQAGGSLRLSCAASGSTFYFYVMGWYRQAPGKERELVARISWSGGSTYYADSVKGRFTISRDNAKNTVYLQMNSLKPEDTAVYYCARQYKYPSSGEYDSWGQGTQVTVSS | low polyreactivity
QVQLVESGGGLVQAGGSLRLSCAASGRIFGRNAMGWYRKAPGKERELVAAISWRGGNTYYADSVKGRFTISRDNAKNTVYLQMNSLKPEDTAVYYCNTVQYRNEMGYWGQGTQVTVSS | high polyreactivity
QVQLVESGGGLVQAGGSLRLSCAASGGTFAVNVMGWYRQAPGKERELVAAITSNGGSTYYADSVKGRFTISRDNAKNTVYLQMNSLTPEDTAVYYCAAEGSGWYTGHYYYWGQGTQVTVSS | low polyreactivity
